From the supplement of paper PMC6379048 come the findings set out here.

pKd: −log10 of the molar value.

Holding throughout (assay): Kd (EC50 corrected by depletion factor)
One data set concerns the target T1, CSTF2 (UniProt P33240).
T1 sequence: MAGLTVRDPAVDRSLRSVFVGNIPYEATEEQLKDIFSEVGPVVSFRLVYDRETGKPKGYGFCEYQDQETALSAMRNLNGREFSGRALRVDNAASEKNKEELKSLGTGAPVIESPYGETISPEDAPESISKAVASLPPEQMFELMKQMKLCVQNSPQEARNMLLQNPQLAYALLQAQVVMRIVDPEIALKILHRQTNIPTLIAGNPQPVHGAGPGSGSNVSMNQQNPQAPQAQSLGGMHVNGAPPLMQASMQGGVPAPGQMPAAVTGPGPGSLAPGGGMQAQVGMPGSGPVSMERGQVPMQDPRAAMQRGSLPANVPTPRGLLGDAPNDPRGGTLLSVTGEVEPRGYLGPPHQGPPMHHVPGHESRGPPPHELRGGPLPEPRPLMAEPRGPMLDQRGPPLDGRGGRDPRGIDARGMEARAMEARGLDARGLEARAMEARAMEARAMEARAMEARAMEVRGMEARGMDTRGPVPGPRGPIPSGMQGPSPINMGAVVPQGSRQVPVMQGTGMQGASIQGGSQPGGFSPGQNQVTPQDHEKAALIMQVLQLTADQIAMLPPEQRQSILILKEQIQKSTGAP
Put shortly: (§1)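 Free RNA oligos (0 nM to 30 μM) were pre-incubated with HEK293-FT lysate (2.5 mg protein/well) for 1 h at 4°C, followed by 30 min at 4°C with the same 5′-amino-C6 oligos coupled to NHS-Sepharose beads. Bound proteins were quantified by label-free LC-MS/MS and normalised to the control. EC50 was derived from a four-parameter log-logistic fit, and Kd was obtained by multiplying EC50 by a protein-dependent depletion factor.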

Another data set addresses T2, RBM4 (UniProt Q9BWF3).
T2 sequence: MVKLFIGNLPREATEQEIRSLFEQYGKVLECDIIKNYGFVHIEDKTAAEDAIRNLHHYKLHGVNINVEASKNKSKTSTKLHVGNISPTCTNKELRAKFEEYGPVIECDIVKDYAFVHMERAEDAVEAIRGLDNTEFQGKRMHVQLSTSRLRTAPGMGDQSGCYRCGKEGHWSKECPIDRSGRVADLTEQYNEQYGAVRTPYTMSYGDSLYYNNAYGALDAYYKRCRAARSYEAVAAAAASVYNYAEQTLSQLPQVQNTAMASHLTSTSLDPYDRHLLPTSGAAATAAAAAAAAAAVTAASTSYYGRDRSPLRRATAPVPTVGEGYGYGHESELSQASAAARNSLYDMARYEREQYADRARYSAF
Put shortly:
as §1

In another data set the target is T3, ZNF830 (UniProt Q96NB3).
T3 sequence: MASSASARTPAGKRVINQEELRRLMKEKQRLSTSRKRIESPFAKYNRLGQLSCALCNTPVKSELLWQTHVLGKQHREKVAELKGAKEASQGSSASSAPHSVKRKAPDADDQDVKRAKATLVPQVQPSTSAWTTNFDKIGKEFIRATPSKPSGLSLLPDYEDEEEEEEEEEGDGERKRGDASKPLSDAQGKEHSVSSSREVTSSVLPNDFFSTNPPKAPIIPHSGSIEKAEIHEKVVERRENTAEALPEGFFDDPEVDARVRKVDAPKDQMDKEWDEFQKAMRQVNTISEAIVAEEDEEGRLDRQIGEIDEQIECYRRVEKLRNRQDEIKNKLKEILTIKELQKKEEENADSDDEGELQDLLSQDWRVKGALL
An outline of the steps:
as §1

A further data set has as its target T4, ZFP36L2 (UniProt P47974).
T4 sequence: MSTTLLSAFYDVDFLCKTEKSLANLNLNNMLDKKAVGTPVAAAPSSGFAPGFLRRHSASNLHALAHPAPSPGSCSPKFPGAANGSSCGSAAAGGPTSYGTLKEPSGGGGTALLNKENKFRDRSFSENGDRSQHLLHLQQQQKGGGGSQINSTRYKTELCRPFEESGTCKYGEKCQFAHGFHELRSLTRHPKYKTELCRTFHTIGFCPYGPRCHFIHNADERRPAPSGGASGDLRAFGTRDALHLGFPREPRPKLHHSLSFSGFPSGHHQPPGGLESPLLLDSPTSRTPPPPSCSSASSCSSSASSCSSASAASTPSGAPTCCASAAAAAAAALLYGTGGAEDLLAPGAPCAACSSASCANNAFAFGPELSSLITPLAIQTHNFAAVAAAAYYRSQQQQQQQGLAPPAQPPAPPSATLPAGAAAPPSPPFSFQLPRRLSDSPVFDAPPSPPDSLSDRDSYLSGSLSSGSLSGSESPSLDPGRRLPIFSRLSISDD
Put shortly:
as §1

For another data set, the target named is RPS16 (UniProt P62249). Put shortly:
as §1

In the next data set the target is ELAVL1 (UniProt Q15717). An outline of the steps:
as §1

The target of another data set is XRN1 (UniProt Q8IZH2). An outline of the steps:
as §1

For a further data set, the target named is T5, LSM4 (UniProt Q9Y4Z0).
T5 sequence: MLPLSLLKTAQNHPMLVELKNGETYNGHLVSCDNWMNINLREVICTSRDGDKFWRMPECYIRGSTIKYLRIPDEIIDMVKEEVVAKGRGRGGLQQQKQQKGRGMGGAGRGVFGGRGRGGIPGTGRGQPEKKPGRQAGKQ
An outline of the steps:
as §1

The next data set has as its target T6, LSM2 (UniProt Q9Y333).
T6 sequence: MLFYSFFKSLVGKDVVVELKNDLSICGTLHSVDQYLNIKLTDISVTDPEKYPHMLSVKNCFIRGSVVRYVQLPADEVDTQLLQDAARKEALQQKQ
Put shortly: as §1

Chain of ELAVL1 (Q15717 whole entry): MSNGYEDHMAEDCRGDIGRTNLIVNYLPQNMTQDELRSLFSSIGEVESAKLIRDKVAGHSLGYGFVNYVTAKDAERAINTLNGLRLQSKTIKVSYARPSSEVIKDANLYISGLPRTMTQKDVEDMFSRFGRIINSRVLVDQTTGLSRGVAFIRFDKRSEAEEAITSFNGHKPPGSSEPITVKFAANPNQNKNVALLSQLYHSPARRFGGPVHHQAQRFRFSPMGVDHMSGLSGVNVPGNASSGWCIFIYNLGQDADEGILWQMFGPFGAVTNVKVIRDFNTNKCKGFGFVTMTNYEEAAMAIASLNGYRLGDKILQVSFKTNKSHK
Chain of XRN1 (Q8IZH2 whole entry): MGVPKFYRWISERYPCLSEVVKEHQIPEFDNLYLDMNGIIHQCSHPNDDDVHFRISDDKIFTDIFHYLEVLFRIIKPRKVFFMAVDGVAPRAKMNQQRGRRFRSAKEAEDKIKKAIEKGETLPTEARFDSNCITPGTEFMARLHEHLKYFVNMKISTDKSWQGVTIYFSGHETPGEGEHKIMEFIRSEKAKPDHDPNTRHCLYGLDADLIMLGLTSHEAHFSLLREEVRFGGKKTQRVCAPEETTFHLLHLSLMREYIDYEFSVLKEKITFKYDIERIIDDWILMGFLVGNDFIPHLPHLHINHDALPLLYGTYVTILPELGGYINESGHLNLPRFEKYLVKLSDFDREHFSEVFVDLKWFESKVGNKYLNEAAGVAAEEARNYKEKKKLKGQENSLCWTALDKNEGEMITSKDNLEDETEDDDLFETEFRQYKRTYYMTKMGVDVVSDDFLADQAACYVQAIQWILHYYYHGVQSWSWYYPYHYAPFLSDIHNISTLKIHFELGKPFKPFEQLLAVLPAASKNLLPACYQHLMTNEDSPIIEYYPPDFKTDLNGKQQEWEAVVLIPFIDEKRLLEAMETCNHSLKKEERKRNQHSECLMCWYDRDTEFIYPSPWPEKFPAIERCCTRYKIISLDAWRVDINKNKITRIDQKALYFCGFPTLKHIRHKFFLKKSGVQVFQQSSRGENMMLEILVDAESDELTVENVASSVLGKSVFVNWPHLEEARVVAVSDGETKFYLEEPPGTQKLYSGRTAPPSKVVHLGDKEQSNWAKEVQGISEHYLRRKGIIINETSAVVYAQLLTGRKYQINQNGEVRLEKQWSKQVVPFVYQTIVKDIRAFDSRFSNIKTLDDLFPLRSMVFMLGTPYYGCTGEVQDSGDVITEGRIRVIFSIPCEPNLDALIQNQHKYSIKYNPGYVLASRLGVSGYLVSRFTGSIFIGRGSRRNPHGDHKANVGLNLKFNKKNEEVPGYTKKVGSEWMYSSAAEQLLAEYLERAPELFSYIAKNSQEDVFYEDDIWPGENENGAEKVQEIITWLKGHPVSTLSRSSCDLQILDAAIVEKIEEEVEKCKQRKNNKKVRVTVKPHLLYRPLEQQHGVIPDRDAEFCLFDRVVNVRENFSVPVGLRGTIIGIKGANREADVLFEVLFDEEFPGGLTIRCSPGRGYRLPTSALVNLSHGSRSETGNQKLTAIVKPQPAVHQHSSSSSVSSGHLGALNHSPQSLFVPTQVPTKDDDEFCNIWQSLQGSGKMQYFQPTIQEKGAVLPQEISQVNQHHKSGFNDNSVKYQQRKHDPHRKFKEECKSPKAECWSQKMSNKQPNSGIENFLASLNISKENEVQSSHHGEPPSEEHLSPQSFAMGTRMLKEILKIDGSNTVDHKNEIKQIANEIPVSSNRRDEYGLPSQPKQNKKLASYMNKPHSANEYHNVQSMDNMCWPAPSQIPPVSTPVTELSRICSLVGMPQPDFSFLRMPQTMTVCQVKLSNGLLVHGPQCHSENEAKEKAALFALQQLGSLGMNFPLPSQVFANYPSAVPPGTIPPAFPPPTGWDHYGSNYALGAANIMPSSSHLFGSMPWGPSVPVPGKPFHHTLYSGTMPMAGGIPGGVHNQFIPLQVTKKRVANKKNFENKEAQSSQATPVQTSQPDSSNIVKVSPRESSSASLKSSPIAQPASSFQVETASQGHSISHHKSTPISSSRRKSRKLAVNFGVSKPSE

For the sequence AAUAAA, the pKd in the data set with CSTF2 was 8.11; in the data set with RBM4, 6.46; in the data set with ZNF830, 6.42; with ZFP36L2, 6.45; with RPS16, 6.46; in the data set with ELAVL1, 6.36. The pKd with XRN1 is 6.70; with LSM4 it was 7.15; with LSM2, 7.28.

Regarding CUGUCCU, the pKd is 6.88 in the data set with RBM4 and 7.11 with RPS16.

Regarding UAUUUAU, the pKd with CSTF2 is 6.54; with ZNF830 it was 6.64; with ZFP36L2 it was 7.95; with ELAVL1, 6.04; in the data set with XRN1, 6.97; in the data set with LSM4, 6.62. The sequence further showed a pKd in the data set with LSM2 of 6.51.
